Data reported in patent US20040132121A1, “Method of identifying antibacterial compounds” (priority 2000, published 2004).

What follows are substances tested against E. coli β fused to the B42 transcriptional activation domain (plasmid pB42ADβ) (Escherichia coli) (UniProt P0A988).

Chain of LexA-PolB (779-783) fusion (plasmid pLexAPolB(779-783)) (P0A7C2 other isoform, or with tags, fused parts or gaps limits assumed): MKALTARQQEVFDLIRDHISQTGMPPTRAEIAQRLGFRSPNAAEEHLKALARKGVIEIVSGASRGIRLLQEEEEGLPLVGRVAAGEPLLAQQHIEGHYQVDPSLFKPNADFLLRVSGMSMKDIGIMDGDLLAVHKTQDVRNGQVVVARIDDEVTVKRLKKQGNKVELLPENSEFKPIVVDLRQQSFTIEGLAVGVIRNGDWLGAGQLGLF
Chain of LexA-DinB (307-317) fusion (plasmid pLexADinB (307-317)) (P0A7C2 other isoform, or with tags, fused parts or gaps): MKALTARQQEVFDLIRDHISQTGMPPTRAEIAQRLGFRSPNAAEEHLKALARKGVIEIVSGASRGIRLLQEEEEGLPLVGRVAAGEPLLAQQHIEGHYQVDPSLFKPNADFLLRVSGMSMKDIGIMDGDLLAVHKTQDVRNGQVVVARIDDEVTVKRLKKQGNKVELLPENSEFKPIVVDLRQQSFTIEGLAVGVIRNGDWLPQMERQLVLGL
Chain of LexA-MutS (802-818) fusion (plasmid pLexAMutS(802-818)) (P0A7C2 other isoform, or with tags, fused parts or gaps): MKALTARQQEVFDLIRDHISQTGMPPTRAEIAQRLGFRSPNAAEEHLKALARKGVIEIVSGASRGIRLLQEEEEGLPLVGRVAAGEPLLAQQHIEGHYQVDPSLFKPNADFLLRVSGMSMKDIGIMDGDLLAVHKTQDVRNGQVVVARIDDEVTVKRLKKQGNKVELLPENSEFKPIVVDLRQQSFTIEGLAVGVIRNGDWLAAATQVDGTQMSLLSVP

Point of comparison: “LexA-DnaE (896-919) fusion (plasmid pLexADnaE (896-919)) (from UniProt P0A7C2 1-202; P10443 896-919)”, β-gal activity Miller units (yeast two-hybrid; interact with β: -) 0.1 Miller units. Against it:
- pLexA — higher, 1.5 Miller units
- LexA-DnaE (542-735) fusion (from UniProt P0A7C2 1-202; P10443 542-735) — higher, 1.1 Miller units

Point of comparison: “LexA-UmuC (351-365) fusion (plasmid pLexAUmuC(351-365)) (from UniProt P0A7C2 1-202)”, β-gal activity Miller units (yeast two-hybrid; interact with β: +) 94.8 Miller units. Against it:
- LexA-MutS (802-818) fusion (plasmid pLexAMutS(802-818)) (from UniProt P0A7C2 1-202) — lower, 43.8 Miller units
- LexA-DnaE (908-931) fusion (plasmid pLexADnaE (908-931)) (from UniProt P0A7C2 1-202; P10443 908-931) — lower, 32.3 Miller units
- LexA-DnaE (542-991) fusion (plasmid pLexADnaE (542-991)) (from UniProt P0A7C2 1-202; P10443 542-991) — lower, 60.1 Miller units
- LexA-PolB (779-783) fusion (plasmid pLexAPolB(779-783)) (from UniProt P0A7C2 1-202) — lower, 69.6 Miller units
- LexA-DnaE (736-991) fusion (from UniProt P0A7C2 1-202; P10443 736-991) — higher, 135 Miller units
- LexA-DinB (307-317) fusion (plasmid pLexADinB (307-317)) (from UniProt P0A7C2 1-202) — lower, 75.1 Miller units

Each substance was assayed against Escherichia coli β subunit of DNA Polymerase III (β protein) (Escherichia coli) (UniProt P0A988).

Work on pep18 Ac-DLF-NH2 (peptide) yielded an IC50 of 135 µM.
